Experimental data from the Human Domainome abundance scans (Beltran et al. 2025).
± gives the uncertainty stated by the source.

B1: Protein C-ets-1, residues 55 to 135; numbered along this chain, P14921 (parent)
chain: GFTKEQQRLGIPKDPRQWTETHVRDWVMWAVNEFSLKGVDFQKFCMNGAALCALGKDCFLELAPDFVGDILWEHLEILQKE
B2: 3'-5' exoribonuclease 1, residues 65 to 114; numbered along this chain, Q8IV48 (parent)
chain: VYKEIAITNGCINRMSKEELRAKLSEFKLETRGVKDVLKKRLKNYYKKQK

Variants of: B1
Test: abundance fitness (aPCA) (normalised: wild type 0, dead -1); higher = more abundant; growth selection in yeast, the domain comes from the species named
Conditions: Homo sapiens

Variant | abundance fitness
Q42H | -0.068 ± 0.068
Q42R | -0.017 ± 0.034
Q42P | -0.214 ± 0.04
Q42T | -0.052 ± 0.061
Q42L | -0.307 ± 0.036
W72R | -0.577 ± 0.038
W72I | -1.06 ± 0.46
W72F | -0.098 ± 0.062
G68S | -0.124 ± 0.036
G68W | -0.655 ± 0.087
G68H | -0.541 ± 0.15
V23E | -1.03 ± 0.26
V23S | -0.48 ± 0.034
V23G | -0.967 ± 0.079
V23I | -0.438 ± 0.045
V23K | -0.904 ± 0.2
P64Q | -0.288 ± 0.065
P64G | 0.032 ± 0.041
P64S | -0.202 ± 0.045
P64L | -0.861 ± 0.082
R8V | -0.122 ± 0.031
R8L | -0.086 ± 0.039
N32G | -0.018 ± 0.023
N32F | -0.399 ± 0.073

Variant | abundance fitness
N32T | -0.042 ± 0.051
N32S | -0.008 ± 0.032
N32C | -0.132 ± 0.044
F2T | -0.23 ± 0.12
F2N | -0.141 ± 0.12
F2P | -0.398 ± 0.074
F2E | -0.345 ± 0.1
F2A | -0.24 ± 0.057
R24L | -0.05 ± 0.034
R24P | -1.03 ± 0.13
R24E | -0.275 ± 0.05
G38S | -0.123 ± 0.032
G38P | -0.172 ± 0.044
L51G | -1.03 ± 0.063
L51R | -0.788 ± 0.051
L51Q | -0.923 ± 0.11
L62Q | -0.3 ± 0.053
L62G | -0.461 ± 0.034
L62Y | -0.141 ± 0.1
L62E | -0.655 ± 0.058
L62V | -0.34 ± 0.035
L62D | -0.968 ± 0.22
D69C | -0.167 ± 0.063
D69V | -0.098 ± 0.041

Variant | abundance fitness
S35C | -0.072 ± 0.053
S35W | -0.559 ± 0.05
S35D | 0.017 ± 0.058
S35T | -0.034 ± 0.041
P15L | -0.281 ± 0.045
P15I | -0.064 ± 0.075
P15S | -1.02 ± 0.12
P15E | -0.974 ± 0.14
P15V | -0.1 ± 0.038
P15H | -0.791 ± 0.36
P15A | -0.351 ± 0.052
C52M | -0.079 ± 0.04
C52A | -0.303 ± 0.029
C52H | -0.534 ± 0.079
C52Q | -0.494 ± 0.062
G1K | 0.049 ± 0.24
G1L | -0.157 ± 0.092
E61M | -0.286 ± 0.079
E61W | -0.908 ± 0.12
E61P | -0.234 ± 0.036
E61Y | -0.908 ± 0.26
E61N | -0.022 ± 0.073
E61S | -0.011 ± 0.038
H22R | -0.818 ± 0.061

Variant | abundance fitness
H22K | -1.07 ± 0.27
H22C | -0.801 ± 0.12
E73V | -0.546 ± 0.053
E73D | 0.04 ± 0.09
E73K | 0.004 ± 0.075
H74S | -0.08 ± 0.04
H74Q | -0.02 ± 0.048
H74C | -0.137 ± 0.054
H74M | -0.271 ± 0.09
H74K | -0.273 ± 0.13
K56M | -0.357 ± 0.037
K56H | -0.033 ± 0.082
K56G | -0.851 ± 0.076
K56D | -0.979 ± 0.22
K56W | -0.729 ± 0.084
K56P | -0.493 ± 0.043
A63R | -0.924 ± 0.087
A63L | -0.016 ± 0.032
A63I | -0.038 ± 0.12
E33K | -0.001 ± 0.05
E33M | -0.316 ± 0.055
E33R | -0.042 ± 0.033
E33S | -0.117 ± 0.03
E33N | -0.078 ± 0.076

Variant | abundance fitness
C45T | -0.007 ± 0.061
C45S | 0.01 ± 0.035
C45Y | -0.032 ± 0.045
C45M | -0.019 ± 0.05
L9M | -0.066 ± 0.057
L9I | -0.178 ± 0.086
L9F | -0.2 ± 0.068
L36F | -0.139 ± 0.059
L36T | -0.697 ± 0.081
L36N | -0.691 ± 0.26
L36G | -0.661 ± 0.037
L75N | -0.697 ± 0.16
L75S | -0.796 ± 0.059
L75I | -0.21 ± 0.14
I77H | 0.076 ± 0.1
I77Q | -0.029 ± 0.073
I77T | 0.01 ± 0.068
I77S | 0.065 ± 0.049
I77M | -0.009 ± 0.063
I70N | -0.546 ± 0.096
I70S | -0.228 ± 0.037
I70F | -0.17 ± 0.055
I70A | -0.105 ± 0.033
I70V | -0.038 ± 0.043

Variant | abundance fitness
T19H | -0.153 ± 0.096
T19C | -0.221 ± 0.078
T19Y | -0.642 ± 0.091
E5C | -0.129 ± 0.077
E5H | -0.087 ± 0.095
E5K | -0.183 ± 0.06
E5Q | -0.123 ± 0.061
E5G | -0.253 ± 0.028
E5V | -0.05 ± 0.039
L60P | -0.628 ± 0.063
L60M | -0.067 ± 0.059
D65H | -0.09 ± 0.076
D65A | 0.004 ± 0.039
D65S | 0.006 ± 0.039
D65E | 0.01 ± 0.055
D65L | -0.09 ± 0.033
D65Y | -0.04 ± 0.075
L54C | -0.666 ± 0.079
L54H | -0.598 ± 0.078
L54E | -0.614 ± 0.051
L54N | -0.302 ± 0.059

Variants of: B2
Test: as above
Conditions: Homo sapiens

Variant | abundance fitness
Q49L | -0.099 ± 0.039
Q49W | -0.206 ± 0.041
Q49M | -0.04 ± 0.068
Q49Y | -0.065 ± 0.068
Q49T | -0.064 ± 0.06
Q49N | -0.099 ± 0.077
Q49S | -0.19 ± 0.04
Q49V | -0.182 ± 0.039
Q49K | -0.083 ± 0.055
Q49R | -0.221 ± 0.032
K50M | -0.216 ± 0.094
K50T | -0.179 ± 0.06
K50N | -0.06 ± 0.048
K50A | -0.159 ± 0.12
K50V | -0.081 ± 0.23
K50L | -0.058 ± 0.09
K50W | -0.052 ± 0.12
K50E | -0.13 ± 0.091
K50G | -0.299 ± 0.12
K50I | -0.157 ± 0.07
K50D | -0.347 ± 0.074
K50H | -0.164 ± 0.059
K50P | -0.201 ± 0.32
K50R | -0.089 ± 0.071
K50Y | -0.162 ± 0.058
K50Q | -0.123 ± 0.073
